In article PMC11128299 (Biophysics and Physicobiology, 2023):
Substitutions are numbered along the chain they refer to. In names and notes the source's numbering stands. Read-outs that look alike come from different tables or passages of the source.

What was measured:
crystal structure [1] = target: the molecule itself; assay: crystal structure
crystal structure [2] = target: the molecule itself; assay: crystal structure; remark: listed apart in the source

B1: KaiC-CV (KaiC with S431C and T432V substitutions) (enzyme)
chain: MTSAEMTSPNNNSEHQAIAKMRTMIEGFDDISHGGLPIGRSTLVSGTSGTGKTLFSIQFLYNGIIEFDEPGVFVTFEETPQDIIKNARSFGWDLAKLVDEGKLFILDASPDPEGQEVVGGFDLSALIERINYAIQKYRARRVSIDSVTSVFQQYDASSVVRRELFRLVARLKQIGATTVMTTERIEEYGPIARYGVEEFVSDNVVILRNVLEGERRRRTLEILKLRGTSHMKGEYPFTITDHGINIFPLGAMRLTQRSSNVRVSSGVVRLDEMCGGGFFKDSIILATGATGTGKTLLVSRFVENACANKERAILFAYEESRAQLLRNAYSWGMDFEEMERQNLLKIVCAYPESAGLEDHLQIIKSEINDFKPARIAIDSLSALARGVSNNAFRQFVIGVTGYAKQEEITGLFTNTSDQFMGAHSITDSHICVITDTIILLQYVEIRGEMSRAINVFKMRGSWHDKAIREFMISDKGPDIKDSFRNFERIISGSPTRITVDEKSELSRIVRGVQEKGPES
- stoichiometry N (crystal structure [1]): 6

B2: KaiC-TV (KaiC with threonine at position 431 and valine at position 432) (enzyme)
chain: B1 chain with C431T
- stoichiometry N (crystal structure [2]): 6
